B1: mouse J chain expressed in tobacco (other)
chain: GDDEATILADNKCMCTRVTSKIIPSTEDPNEDIVERNIRIVVPLNNRENISDPTSPLRRNFVYHLSDVCKKCDPVEVELEDQVVTATQSNICNEDDGVPETCYMYDRNKCYTTMVPLRYHGETKMVQAALTPDSCYPD
notes: also called joining chain
B2: rabbit secretory component (SC) construct expressed in tobacco (receptor)
chain: QSSLLGPSSIFGPGEVNVLEGDSVSITCYYPTTSVTRHSRKFWCREEESGRCVTLASTGYTSQEYSGRGKLTDFPDKGEFVVTVDQLTQNDSGSYKCGVGVNGRGLDFGVNVLVSQKPEPDDVVYKQYESYTVTITCPFTYATRQLKKSFYKVEDGELVLIIDSSSKEAKDPRYKGRITLQIQSTTAKEFTVTIKHLQLNDAGQYVCQSGSDPTAEEQNVDLRLLTPGLLYGNLGGSVTFECALDSEDANAVASLRQVRGGNVVIDSQGTIDPAFEGRILFTKAENGHFSVVIAGLRKEDTGNYLCGVQSNGQSGDGPTQLRQLFVNEEIDVSRSPPVLKGFPGGSVTIRCPYNPKRSDSHLQLYLWEGSQTRHLLVDSGEGLVQKDYTGRLALFEEPGNGTFSVVLNQLTAEDEGFYWCVSDDDESLTTSVKLQIVDGEPSPTIDKFTAVQGEPVEITCHFPCKYFSSEKYWCKWNDHGCEDLPTKLSSSGDLVKCNNNLVLTLTLDSVSEDDEGWYWCGAKDGHEFEEVAAVRVELTEPAKVAVEPAKVPVDPAKAAPAPAEEKAKARCPVPRRRQWYPLSRKLRTSCPEPRLLAEEVAVQSAE
notes: also called rabbit SC

Assays:
[1] = target: T1, purified 185 kD streptococcal antigen (SA) I/II cell surface adhesion molecule (Streptococcus mutans, UniProt P23504 39-1532); assay: ELISA of plant leaf extract on purified SA I/II coated plates
T1 construct: also called purified SA; streptococcal antigen I/II
T1 sequence (looked up): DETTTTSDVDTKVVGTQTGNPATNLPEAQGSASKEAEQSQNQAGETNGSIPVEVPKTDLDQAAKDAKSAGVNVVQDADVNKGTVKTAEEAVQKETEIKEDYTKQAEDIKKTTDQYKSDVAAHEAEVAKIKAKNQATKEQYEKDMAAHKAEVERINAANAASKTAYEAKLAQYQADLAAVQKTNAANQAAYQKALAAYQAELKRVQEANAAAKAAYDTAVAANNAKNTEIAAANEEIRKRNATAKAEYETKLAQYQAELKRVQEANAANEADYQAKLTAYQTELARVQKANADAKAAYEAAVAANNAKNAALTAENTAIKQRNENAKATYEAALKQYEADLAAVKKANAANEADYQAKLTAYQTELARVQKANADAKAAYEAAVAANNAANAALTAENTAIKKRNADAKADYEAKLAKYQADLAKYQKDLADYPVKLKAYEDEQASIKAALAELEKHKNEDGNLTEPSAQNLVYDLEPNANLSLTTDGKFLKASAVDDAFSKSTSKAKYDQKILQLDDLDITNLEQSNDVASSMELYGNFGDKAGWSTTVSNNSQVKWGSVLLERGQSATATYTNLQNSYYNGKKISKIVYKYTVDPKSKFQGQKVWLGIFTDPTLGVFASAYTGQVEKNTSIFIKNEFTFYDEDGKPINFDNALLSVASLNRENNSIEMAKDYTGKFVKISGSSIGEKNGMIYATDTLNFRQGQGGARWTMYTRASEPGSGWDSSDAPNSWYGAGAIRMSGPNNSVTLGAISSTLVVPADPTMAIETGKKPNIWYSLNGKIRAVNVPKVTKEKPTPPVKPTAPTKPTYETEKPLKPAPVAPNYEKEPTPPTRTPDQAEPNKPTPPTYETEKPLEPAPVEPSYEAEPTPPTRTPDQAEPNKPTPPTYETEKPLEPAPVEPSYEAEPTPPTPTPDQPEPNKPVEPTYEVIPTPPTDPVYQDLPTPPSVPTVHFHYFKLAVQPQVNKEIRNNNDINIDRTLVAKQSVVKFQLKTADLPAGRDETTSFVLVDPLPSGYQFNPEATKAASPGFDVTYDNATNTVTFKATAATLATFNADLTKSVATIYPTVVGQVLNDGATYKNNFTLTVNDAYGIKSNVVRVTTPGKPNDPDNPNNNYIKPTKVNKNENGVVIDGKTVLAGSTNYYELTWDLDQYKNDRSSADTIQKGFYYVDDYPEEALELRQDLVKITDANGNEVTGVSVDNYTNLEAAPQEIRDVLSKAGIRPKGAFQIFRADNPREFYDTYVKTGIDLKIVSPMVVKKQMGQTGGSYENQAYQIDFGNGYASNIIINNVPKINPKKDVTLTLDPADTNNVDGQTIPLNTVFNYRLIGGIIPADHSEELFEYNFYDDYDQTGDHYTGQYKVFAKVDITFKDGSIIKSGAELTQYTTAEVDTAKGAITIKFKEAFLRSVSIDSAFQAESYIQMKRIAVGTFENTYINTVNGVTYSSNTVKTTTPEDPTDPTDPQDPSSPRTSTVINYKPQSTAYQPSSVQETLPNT

[2] = target: dIgA-G, plant-expressed dimeric IgA-G with mouse J chain (murine; mouse) (UniProt P01878); assay: initial estimate in extracts of SIgA-G plants (data not shown)
Chain of dIgA-G, plant-expressed dimeric IgA-G with mouse J chain (murine; mouse) (P01878 116-344, form in doubt): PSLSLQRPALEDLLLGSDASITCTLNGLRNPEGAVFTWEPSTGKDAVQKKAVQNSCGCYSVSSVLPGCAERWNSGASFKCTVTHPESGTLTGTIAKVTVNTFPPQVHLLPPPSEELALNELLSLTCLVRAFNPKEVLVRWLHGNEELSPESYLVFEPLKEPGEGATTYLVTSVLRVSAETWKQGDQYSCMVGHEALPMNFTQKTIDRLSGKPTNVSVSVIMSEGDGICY

Row | Binder | binding result [1] | percent of SC associated with dimeric IgA-G [2] [%]
1 | B1 | no binding | 
2 | B2 | no binding | 50

Source: US6852319 (Scripps Research, dated 2005)
